Source: patent US20240010720A1 (IOMX THERAPEUTICS, published 2024)
Where two headings read alike, the source gives them in different places. Values belong to the binder of their own block, whether it stands above or below them.

B7: human IGSF11 (VSIG3) on cells (receptor)
chain: LEVSESPGSIQVARGQPAVLPCTFTTSAALINLNVIWMVTPLSNANQPEQVILYQGGQMFDGAPRFHGRVGFTGTMPATNVSIFINNTQLSDTGTYQCLVNNLPDIGGRNIGVTGLTVLVPPSAPHCQIQGSQDIGSDVILLCSSEEGIPRPTYLWEKLDNTLKLPPTATQDQVQGTVTIRNISALSSGLYQCVASNAIGTSTCLLDLQVISPQPRNIGLIAGAIGTGAVIIIFCIALILGAFFYWRSKNKEEEEEEIPNEIREDDLPPKCSSAKAFHTEISSSDNNTLTSSNAYNSRYWSNNPKVHRNTESVSHFSDLGQSFSFHSGNANIPSIYANGTHLVPGQHKTLVVTANRGSSPQVMSRSNGSVSRKPRPPHTHSYTISHATLERIGAVPVMVPAQSRAGSLV

How the values were obtained:
[1] = target: T1, recombinant human IGSF11 (VSIG3) extracellular domain (ECD) (human, UniProt Q5DX21 23-241, biotinylated where captured on streptavidin); experiment: SPR, IgG1
T1 construct: also called biotinylated recombinant ECD-IGSF11; IGSF11 (ECD domain)
T1 sequence: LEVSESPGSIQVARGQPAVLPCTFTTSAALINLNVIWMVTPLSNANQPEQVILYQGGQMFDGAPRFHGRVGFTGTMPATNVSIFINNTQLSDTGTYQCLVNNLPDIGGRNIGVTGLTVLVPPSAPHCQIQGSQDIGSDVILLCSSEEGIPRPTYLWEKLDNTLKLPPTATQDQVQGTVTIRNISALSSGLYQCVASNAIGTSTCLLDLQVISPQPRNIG

[2] = target: B7; experiment: FACS, DMS 273 cells
[3] = target: B7; experiment: FACS, HEK cells expressing IGSF11
[4] = target: B7; experiment: FACS, IgG1-format antibodies; DMS 273 cells (D) treated with IGSF11 siRNA (KD)
[5] = target: B7; experiment: FACS, IgG1-format antibodies; M579-A2-luc cells (M) treated with IGSF11 siRNA (KD)
[6] = target: B7; experiment: FACS, IgG1-format antibodies; DMS 273 cells (D) treated with scrambled control siRNA (SC)
[7] = target: B7; experiment: FACS, IgG1-format antibodies; M579-A2-luc cells (M) treated with scrambled control siRNA (SC)
[8] = target: T2, His-tagged extracellular domain (ECD) of human IGSF11 (VSIG3) (human, UniProt Q5DX21 23-241); experiment: ELISA: IgG1-format antibody titrated on coated His-tagged IGSF11; x axis nM IgG, y axis absorbance per legend
T2 construct: partly bought (SinoBiological 13094-H08H); also called IGSF11-HIS; HIS-IGSF11; not shown: HIS6 tag
T2 sequence: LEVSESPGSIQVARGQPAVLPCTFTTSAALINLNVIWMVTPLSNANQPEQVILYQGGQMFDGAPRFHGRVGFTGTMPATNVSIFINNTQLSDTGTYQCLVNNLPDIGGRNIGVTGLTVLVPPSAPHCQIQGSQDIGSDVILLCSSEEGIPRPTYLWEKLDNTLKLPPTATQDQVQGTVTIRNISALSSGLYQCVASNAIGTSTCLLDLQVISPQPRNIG

[9] = target: B7; experiment: FACS, IgG1-format antibodies; CL-11 cells (C), a line that does not express IGSF11 (specificity control), IGSF11 siRNA (KD)
[10] = target: B7; experiment: FACS, IgG1-format antibodies; CL-11 cells (C), a line that does not express IGSF11 (specificity control), scrambled control siRNA (SC)
[11] = target: T2, His-tagged extracellular domain (ECD) …; experiment: blocking ELISA: antibody pre-incubated with His-tagged IGSF11 ECD, complexes added to immobilised VSIR-Fc; y axis % remaining IGSF11 binding to VSIR, x axis nM IgG per legend
[12] = target: T2, His-tagged extracellular domain (ECD) …; experiment: as above; remark: listed apart in the source
[13] = target: T2, His-tagged extracellular domain (ECD) …; experiment: ELISA, IgG1
[14] = target: T3, IGSF11 ECD fused to murine-Fc (human; mouse, UniProt Q5DX21 23-241); experiment: ELISA, IgG
T3 construct: also called Fc-fusion IGSF11 ECD; full-length ECD of IGSF11; not shown: murine Fc
T3 sequence: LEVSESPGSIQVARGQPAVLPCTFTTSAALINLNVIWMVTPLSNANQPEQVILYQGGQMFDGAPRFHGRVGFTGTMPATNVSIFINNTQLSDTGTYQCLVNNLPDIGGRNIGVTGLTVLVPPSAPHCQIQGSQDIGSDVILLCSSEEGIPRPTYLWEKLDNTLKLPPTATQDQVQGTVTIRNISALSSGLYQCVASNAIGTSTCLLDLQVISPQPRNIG

[15] = target: T4, IgC2 domain of human IGSF11 fused to murine IgG2a Fc-region (human; mouse, UniProt Q5DX21 137-241); experiment: ELISA, IgG
T4 construct: also called IgC2-like domain mFc fusion; not shown: murine IgG2a Fc-region
T4 sequence: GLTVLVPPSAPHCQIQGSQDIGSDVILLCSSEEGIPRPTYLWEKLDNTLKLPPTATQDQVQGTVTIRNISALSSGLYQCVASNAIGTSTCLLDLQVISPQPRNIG

[16] = target: T5, murine IGSF11 on cells (mouse, UniProt P0C673 23-428); experiment: FACS, CT26-IGSF11 cells, IgG
T5 construct: UniProt P0C673; also called MC38-IGSF11 (murine); CT26-IGSF11 (murine)
T5 sequence: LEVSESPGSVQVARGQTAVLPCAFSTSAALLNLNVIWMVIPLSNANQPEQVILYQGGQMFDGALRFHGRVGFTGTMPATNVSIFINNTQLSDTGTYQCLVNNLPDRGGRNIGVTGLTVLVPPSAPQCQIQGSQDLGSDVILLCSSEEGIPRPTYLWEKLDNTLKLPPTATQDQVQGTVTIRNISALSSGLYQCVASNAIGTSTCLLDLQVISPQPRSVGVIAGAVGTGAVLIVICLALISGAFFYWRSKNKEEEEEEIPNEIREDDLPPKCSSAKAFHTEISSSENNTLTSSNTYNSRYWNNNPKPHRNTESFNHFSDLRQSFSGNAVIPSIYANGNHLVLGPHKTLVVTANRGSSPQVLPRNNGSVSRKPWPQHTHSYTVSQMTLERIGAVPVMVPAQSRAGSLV
From the text: (§1) Unbound antibodies were removed by washing the cells three time with FACS buffer. Bound antibodies were detected with a mouse anti-human IgG antibody conjugated with AlexaFluor647.

[17] = target: T5, murine IGSF11 on cells; experiment: FACS, MC38-IGSF11 cells, IgG
From the text: as §1

[18] = target: B7; experiment: FACS, MDA-MB-231-IGSF11 cells, IgG
From the text: as §1

[19] = target: T1, recombinant human IGSF11 (VSIG3) …; experiment: BLI, apparent affinity, IgG captured, IGSF11 ECD 100 nM
From the text: Briefly, various APBs were loaded on an optical biosensor via a commercially available Capture System (AHC sensors, ForteBio).

[20] = target: T6, scFv-Fc-format of antibody A-015; experiment: FACS on monocytes (CD14 gate) from PBMC of healthy volunteer A, labelled secondary antibody; x axis IGSF11 signal
T6 construct: scFv genetically fused to mouse IgG2A Fc; also called anti-IGSF11 scFv-Fc (mouse IgG2A)
T6 sequence (VL, as listed by the source): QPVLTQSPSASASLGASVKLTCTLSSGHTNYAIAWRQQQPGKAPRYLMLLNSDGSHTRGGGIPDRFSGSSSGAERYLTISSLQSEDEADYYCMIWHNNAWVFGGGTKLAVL

B1: B-002 (chain-swapped IgG1) (antibody, V domains shown)
VH: EVQLVESGGGLIQPGGSLRLSCAASGFTVSSNYMSWVRQAPGKGLEWVSVIYSGGSTYYADSVKGRFTISRDNSKNTLYLQMNSLRAEDTAVYYCARGNPYYYGDLQVNFDYWGQGTLVTVSS
VL: QAVVTQEPSLTVSPGGTVTLTCASSTGAVTSGYYPNWFQQKPGQAPRALIYSTSNKHSWTPARFSGSLLGGKAALTLSGVQPEDEAEYYCLLYYGGAWVFGGGTKLTVL
notes: human IgG1 format; also called B2
- Kd [1]: 100 to 250 nM
- EC50 [2]: > 50 nM
- EC50 [3]: 10 to 50 nM
- percentage binding (FACS heat-map) [4]: 8.68%
- percentage binding (FACS heat-map) [5]: 2.77%
- percentage binding (FACS heat-map) [6]: 80.1%
- percentage binding (FACS heat-map) [7]: 70.7%
- EC50 (read off the curve) [8]: ~0.01 nM
- percentage binding (FACS heat-map) [9]: 4.54%
- percentage binding (FACS heat-map) [10]: 3%
- IC50 (read off the curve) [11]: ~4 nM

B2: B-001 (chain-swapped IgG1) (antibody, V domains shown)
VH: EVQLLESGGGLIQPGGSLRLSCAVSGFTVSSNYMSWVRQAPGKGLEWVSVIYSGGSTYYADSVKGRFTISRDNSKNTLYLQMNSLRAEDTAVYYCARGNPYYYGDLQVNFDYWGQGTLVTVSS
VL: QAVVTQEPSLTVSPGGTVTLTCASSTGAVTSAYYPNWFQQKPGQAPRALIYSTSNKHSWTPARFSGSLLGGKAALTLSGVQPEDEADYYCLLYYGGAWVFGGGTKLTVL
notes: human IgG1 format; also called B1
- Kd [1]: 250 to 500 nM
- EC50 [3]: 10 to 50 nM
- IC50 (read off the curve) [12]: ~2 nM

B3: B-004 (chain-swapped IgG1) (antibody, V domains shown)
VH: EVQLLESGGGLIQPGGSLRLSCAVSGFTVSSNYMSWVRQAPGKGLEWVSVIYSGGSTYYADSVKGRFTISRDNSKNTLYLQMNSLRAEDTAVYYCARGNPYYYGDLQVNFDYWGQGTLVTVSS
VL: QAVVTQEPSLTVSPGGTVTLTCASSTGAVTSGYYPNWFQQKPGQAPRPLIYSTSNKHSWTPARFSGSLLGGKAALTLSGVQPDDEAEYYCLLYYGGDWVFGGGTKLTVL
notes: human IgG1 format; also called B4
- EC50 (read off the curve) [8]: ~0.02 nM
- IC50 (read off the curve) [11]: ~5 nM

Binder: B7
- binding result [20]: binds

More lines, now with the values ahead:

- binding result [13]: binds
B4: A-037 (IgG1 format) (antibody, V domains shown)
VH: QVQLVQSGAEVKKPGASVKVSCKASGYTFTGYYMHWVRQAPGQGLEWMGWINPNSGNTGYAQKFQGRVTMTRNTSISTAYMELSSLRSEDTAVYYCARGGQQQLVLDDYWGQGTLVTVSS
VL: NFMLTQPHSVSESPGKTVTISCTGSSGSIASNYVQWYQQRPGSAPTTVIYEDNQRPSGVPDRFSGSIDSSSNSASLTISGLKTEDEADYYCQSYDSSNQRVFGGGTKLTVL
notes: human IgG1 format

- binding result [13]: binds
B5: A-019 (IgG1 format) (antibody, V domains shown)
VH: QVQLVQSGAEVKKPGASVKVSCKASGYTFTGYYMHWVRQAPGQGLEWMGWINPNSGNTGYAQKFQGRVTMTRNTSISTAYMELSSLRSEDTAVYYCARGGQQQLVLDDYWGQGTLVTVSS
VL: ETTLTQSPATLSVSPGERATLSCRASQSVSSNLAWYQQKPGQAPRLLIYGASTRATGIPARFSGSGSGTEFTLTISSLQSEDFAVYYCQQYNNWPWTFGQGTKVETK
notes: human IgG1 format

- EC50 [14]: < 1 nM
- EC50 [15]: < 1 nM
- EC50 [16]: < 20 nM
- EC50 [17]: < 20 nM
- EC50 [18]: 10 to 15 nM
- Kd [19]: < 15 nM
B6: C-003 (IgG1 format) (antibody, V domains shown)
VH: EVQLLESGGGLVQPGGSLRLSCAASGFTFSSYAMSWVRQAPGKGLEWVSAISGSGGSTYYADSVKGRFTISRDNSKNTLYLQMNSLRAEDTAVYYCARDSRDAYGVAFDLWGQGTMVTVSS
VL: ASVLTQPPSVSAAPGQKVTISCSGSSSNIGNNYVSWYQQLPGTAPKLLIYDNNKRPSGIPDRFSGSKSGTSATLGITGLQAEDEADYYCLSYTSSQYVFGGGTKLTVL
notes: wildtype human IgG1 and kappa or lambda constant regions
